Laboratory results published in patent US20110104179A1.

Tests used:
Experiment in all cases: cell-based or functional assay
[1] = target: Arg-gingipains of P. gingivalis ATCC 33277 whole cells (Porphyromonas gingivalis ATCC 33277)
[2] = target: Arg- and Lys-specific proteinases of P. gingivalis ATCC 33277 whole cells (DQ BSA assay) (Porphyromonas gingivalis ATCC 33277)
[3] = target: Lys-gingipain (Kgp) of P. gingivalis ATCC 33277 whole cells (Porphyromonas gingivalis ATCC 33277) (UniProt B2RLK2)

κ-casein(117-123) (peptide)
Arg-Specific Activity (%), ATCC 33277 whole cells, BApNA, peptide 200 µM [1]: 111% | Arg-Specific Activity (%), ATCC 33277 whole cells, BApNA, peptide 500 µM [1]: 90% | Arg-Specific Activity (%), ATCC 33277 whole cells, BApNA, peptide 1000 µM [1]: 92%

κ-casein(127-137) (peptide)
Arg-Specific Activity (%), ATCC 33277 whole cells, BApNA, peptide 200 µM [1]: 102% | Arg-Specific Activity (%), ATCC 33277 whole cells, BApNA, peptide 500 µM [1]: 97% | Arg-Specific Activity (%), ATCC 33277 whole cells, BApNA, peptide 1000 µM [1]: 82%

β-casein(193-205) (peptide)
inhibition of whole cell Arg-specific proteolytic activity, peptide 200 µM [1]: 15 % inhibition

κ-casein(106-137) (from UniProt P02668 127-158) (peptide)
inhibition of protease activity in the fluorescence assay (DQ Green BSA), whole ATCC 33277 cells, peptide 500 µM [2]: 37 % inhibition

Non-glycosylated κ-casein(106-169) (from UniProt P02668 127-190) (peptide)
inhibition of proteinase activity against fluorescent BSA (DQ Green BSA), whole ATCC 33277 cells, peptide 500 µM [2]: 60 % inhibition

κ-casein(109-137) (peptide; modification not given)
Protease activity (%), Arg assay, ATCC 33277 whole cell, peptide 50 µM [1]: 84% | Protease activity (%), Arg assay, ATCC 33277 whole cell, peptide 100 µM [1]: 36%

αS1-casein(11-23) (peptide)
Protease activity (%), Lys assay, ATCC 33277 whole cell, peptide 100 µM [3]: 64% | Protease activity (%), Lys assay, ATCC 33277 whole cell, peptide 200 µM [3]: 43% | Protease activity (%), Lys assay, ATCC 33277 whole cell, peptide 300 µM [3]: 34% | inhibition in the Lys-specific protease assays, whole cells, inhibitor mixture with ZnCl2 [3]: 85 % inhibition | Activity with ATCC33277, Arg-gingipains, peptide 100 µM alone (no inhibitor 29.23 + 0.06) [1]: 18 | Protease activity (%), Arg assay, ATCC 33277 whole cell, peptide 100 µM [1]: 62% | Protease activity (%), Arg assay, ATCC 33277 whole cell, peptide 200 µM [1]: 39% | Protease activity (%), Arg assay, ATCC 33277 whole cell, peptide 300 µM [1]: 38% | inhibition of Arg-specific proteolytic activity, whole cells, peptide 100 µM alone [1]: 40 % inhibition | inhibition of Arg-specific proteolytic activity, whole cells, peptide and ZnCl2 in a 1:4 ratio [1]: 70 % inhibition

β-casein(193-209) (peptide)
Protease activity (%), Lys assay, ATCC 33277 whole cell, peptide 100 µM [3]: 71% | Protease activity (%), Lys assay, ATCC 33277 whole cell, peptide 200 µM [3]: 59% | Protease activity (%), Lys assay, ATCC 33277 whole cell, peptide 300 µM [3]: 49% | inhibition in the Lys-specific protease assays, whole cells, peptide: ZnCl2 mixture [3]: 90 % inhibition | Activity with ATCC33277, Arg-gingipains, peptide 100 µM alone (no inhibitor 29.23 + 0.06) [1]: 20 | Protease activity (%), Arg assay, ATCC 33277 whole cell, peptide 100 µM [1]: 69% | Protease activity (%), Arg assay, ATCC 33277 whole cell, peptide 200 µM [1]: 50% | Protease activity (%), Arg assay, ATCC 33277 whole cell, peptide 300 µM [1]: 50% | inhibition of Arg-specific proteolytic activity, whole cells, peptide 100 µM alone [1]: 30 % inhibition | inhibition of Arg-specific proteolytic activity, whole cells, peptide and ZnCl2 in a 1:4 ratio [1]: 70 % inhibition
